Data: US6881719B2, “β-turn peptidomimetic cyclic compounds” (McGill University, priority 2000, dated 2005)
Blank lines part the entries; values can stand above or below the molecule they belong to. No end group written: not given here.

Columns and labels:
[1] = biological target: T1, NIH3T3 fibroblasts expressing TrkC (Homo sapiens, UniProt Q16288); assay: Cell survival (MTT), NIH-TrkC; format: cell-based; details: 72 hours
T1 construct: expressed in transfected cells; host or cells: NIH3T3 fibroblasts
Description: (§1) The 4-3.6 cells are B104 cells stably transfected with human trkA cDNA, and express equal levels of p75 and TrkA (TrkA+ p75+). For screening agents that activate or antagonize TrkC receptors, NIH3T3 fibroblasts were stably transfected with human TrkC cDNA. These cells respond to the ligand NT-3. For screening agents that activate or antagonize TrkA receptors, NIH3T3 fibroblasts were stably transfected with human TrkA cDNA. These cells respond to the ligand NGF.
(§2) Cell lines: 5,000 cells/well in protein-free media (PFHM-II, GIBCO, Toronto) containing 0.2% bovine serum albumin (BSA) (Crystalline fraction V, Sigma, St. Louis, Mo.) were seeded in 96 well plates (Falcon, Mississauga, Ontario). The cultures were untreated, or treated with the indicated test or control ligands. Cell viability was quantitated using the MTT assay after 56-72 hours of culture. […] The OD of untreated cells were subtracted. The higher optical density of untreated primary cultures is likely due to cellular heterogeneity and to endogenous production of limiting amounts of growth factors.

[2] = biological target: T2, NIH3T3 fibroblasts expressing TrkA (Homo sapiens, UniProt P04629); assay: Cell survival (MTT), NIH-TrkA; format: cell-based; details: 72 hours;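 note: 100% equals survival with optimal NGF at 1 nM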
T2 construct: expressed in transfected cells; host or cells: NIH3T3 fibroblasts
Description: as §1, with “These cells respond to the ligand NT-3.” left out, “cDNA.” for “cDNA. These cells respond to the ligand NGF.”
as §2, with “subtracted.” for “subtracted. The higher optical density of untreated primary cultures is likely due to cellular heterogeneity and to endogenous production of limiting amounts of growth factors.”

[3] = system: wild type NIH3T3 fibroblasts; assay: Cell survival (MTT), NIH wt; format: cell-based; details: 72 hours
Description: as §1, §2

[4] = biological target: p75 NGF receptor on B104 rat neuroblastoma cells and 4-3.6 cells (rat) (UniProt P07174); assay: FACScan, 4-3.6 cells, mAb 1 nM, no competitor
[5] = biological target: human TrkA expressed on transfected cells (4-3.6 cells; NIH3T3-TrkA cells) (human) (UniProt P04629); assay: FACScan, 4-3.6 cells (p75+ TrkA+), avidin-FITC
[6] = biological target: human TrkC expressed on transfected NIH3T3 fibroblasts (human) (UniProt Q16288); assay: cell-based or functional assay
[7] = biological target: TrkA on primary rat embryonic neurons (DRG and septal cultures) (rat) (UniProt P35739); assay: cell-based or functional assay
[8] = biological target: TrkA on primary rat embryonic neurons (DRG and septal cultures) (rat, UniProt P35739 33-799); assay: cell-based or functional assay
[9] = biological target: human TrkC expressed on transfected NIH3T3 fibroblasts (human) (UniProt Q16288); assay: cell-based or functional assay; remark: listed apart in the source
[10] = biological target: human TrkA expressed on transfected cells (4-3.6 cells; NIH3T3-TrkA cells) (human) (UniProt P04629); assay: cell-based or functional assay

TrkA on primary rat embryonic neurons (DRG and septal cultures) (rat), sequence (P35739 33-799): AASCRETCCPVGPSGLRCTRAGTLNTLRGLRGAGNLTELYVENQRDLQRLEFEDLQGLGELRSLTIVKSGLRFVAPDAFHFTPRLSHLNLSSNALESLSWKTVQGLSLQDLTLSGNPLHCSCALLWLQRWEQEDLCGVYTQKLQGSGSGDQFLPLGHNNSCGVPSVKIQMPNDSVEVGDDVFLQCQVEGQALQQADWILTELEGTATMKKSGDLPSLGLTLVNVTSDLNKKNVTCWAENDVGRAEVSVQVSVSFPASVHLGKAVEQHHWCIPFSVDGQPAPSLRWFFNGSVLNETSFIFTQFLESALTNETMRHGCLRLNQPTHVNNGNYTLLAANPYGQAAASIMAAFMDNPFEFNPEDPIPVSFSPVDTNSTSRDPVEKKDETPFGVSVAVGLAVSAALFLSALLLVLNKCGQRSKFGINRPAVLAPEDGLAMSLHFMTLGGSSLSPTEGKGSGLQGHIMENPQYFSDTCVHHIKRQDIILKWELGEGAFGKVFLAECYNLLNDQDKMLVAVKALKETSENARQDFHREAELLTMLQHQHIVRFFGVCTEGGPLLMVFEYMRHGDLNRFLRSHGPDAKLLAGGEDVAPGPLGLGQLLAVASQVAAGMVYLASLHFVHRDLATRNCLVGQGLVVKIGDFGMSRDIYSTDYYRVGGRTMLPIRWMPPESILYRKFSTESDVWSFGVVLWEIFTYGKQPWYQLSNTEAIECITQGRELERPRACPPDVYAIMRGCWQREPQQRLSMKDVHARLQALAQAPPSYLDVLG
human TrkC expressed on transfected NIH3T3 fibroblasts (human), sequence (Q16288 32-839): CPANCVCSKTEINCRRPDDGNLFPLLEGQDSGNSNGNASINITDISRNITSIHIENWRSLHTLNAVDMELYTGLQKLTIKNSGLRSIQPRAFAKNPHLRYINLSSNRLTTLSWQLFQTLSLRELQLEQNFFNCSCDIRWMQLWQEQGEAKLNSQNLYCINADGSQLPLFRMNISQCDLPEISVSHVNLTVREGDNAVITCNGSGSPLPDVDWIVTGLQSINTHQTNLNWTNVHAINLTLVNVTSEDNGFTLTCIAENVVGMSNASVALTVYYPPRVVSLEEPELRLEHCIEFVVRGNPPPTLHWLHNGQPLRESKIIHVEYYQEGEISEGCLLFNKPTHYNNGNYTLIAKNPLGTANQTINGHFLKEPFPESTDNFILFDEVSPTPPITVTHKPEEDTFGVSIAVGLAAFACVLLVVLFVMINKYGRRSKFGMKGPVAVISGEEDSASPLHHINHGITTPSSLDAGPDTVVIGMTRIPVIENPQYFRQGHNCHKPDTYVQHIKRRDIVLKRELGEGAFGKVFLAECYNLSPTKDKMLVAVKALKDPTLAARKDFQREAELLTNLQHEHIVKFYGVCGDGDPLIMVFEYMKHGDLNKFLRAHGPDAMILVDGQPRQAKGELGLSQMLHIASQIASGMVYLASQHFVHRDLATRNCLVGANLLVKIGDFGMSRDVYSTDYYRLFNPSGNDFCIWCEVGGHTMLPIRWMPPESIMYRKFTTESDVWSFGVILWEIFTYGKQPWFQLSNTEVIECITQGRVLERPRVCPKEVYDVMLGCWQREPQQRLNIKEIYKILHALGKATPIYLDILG
T1 sequence (Q16288 32-839): as above
human TrkA expressed on transfected cells (4-3.6 cells; NIH3T3-TrkA cells) (human), sequence (P04629 33-796): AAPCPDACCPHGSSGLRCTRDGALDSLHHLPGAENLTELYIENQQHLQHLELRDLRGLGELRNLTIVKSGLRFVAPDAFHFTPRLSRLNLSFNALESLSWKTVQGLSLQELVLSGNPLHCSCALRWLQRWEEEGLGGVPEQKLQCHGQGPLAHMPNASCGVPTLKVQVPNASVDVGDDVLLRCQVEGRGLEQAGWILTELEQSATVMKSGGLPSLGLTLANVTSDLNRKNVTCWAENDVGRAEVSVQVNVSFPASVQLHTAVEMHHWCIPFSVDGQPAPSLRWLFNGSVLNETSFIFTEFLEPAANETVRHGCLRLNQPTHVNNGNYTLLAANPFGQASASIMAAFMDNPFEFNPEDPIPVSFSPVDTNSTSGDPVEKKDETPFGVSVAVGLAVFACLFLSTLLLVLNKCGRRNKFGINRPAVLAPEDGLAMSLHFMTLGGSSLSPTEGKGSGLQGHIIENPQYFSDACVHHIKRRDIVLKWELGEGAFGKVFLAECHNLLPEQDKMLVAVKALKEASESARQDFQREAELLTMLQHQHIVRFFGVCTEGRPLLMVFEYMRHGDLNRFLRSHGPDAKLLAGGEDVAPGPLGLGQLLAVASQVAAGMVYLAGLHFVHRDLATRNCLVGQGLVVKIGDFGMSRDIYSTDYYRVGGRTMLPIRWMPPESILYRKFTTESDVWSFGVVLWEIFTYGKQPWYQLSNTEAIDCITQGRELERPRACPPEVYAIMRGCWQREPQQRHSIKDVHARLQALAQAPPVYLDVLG
T2 sequence (P04629 33-796): as above
TrkA on primary rat embryonic neurons (DRG and septal cultures), sequence (P35739 33-799): as the sequence (P35739 33-799) above
p75 NGF receptor on B104 rat neuroblastoma cells and 4-3.6 cells (rat), sequence (P07174 30-425): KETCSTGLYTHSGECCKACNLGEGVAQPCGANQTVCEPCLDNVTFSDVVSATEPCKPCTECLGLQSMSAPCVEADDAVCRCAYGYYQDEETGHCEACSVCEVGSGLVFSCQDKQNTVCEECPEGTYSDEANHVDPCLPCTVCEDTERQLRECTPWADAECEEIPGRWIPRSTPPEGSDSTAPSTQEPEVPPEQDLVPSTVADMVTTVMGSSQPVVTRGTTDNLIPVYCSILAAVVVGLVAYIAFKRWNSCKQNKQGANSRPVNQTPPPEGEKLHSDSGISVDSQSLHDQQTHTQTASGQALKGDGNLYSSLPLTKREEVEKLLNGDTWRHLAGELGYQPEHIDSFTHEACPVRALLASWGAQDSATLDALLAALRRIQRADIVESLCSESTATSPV

Molecule: NT-3: Neurotrophin-3, prefers binding to TrkC receptors
NIH-TrkC % Protection ([1]; 10 pM NT-3): 29±1% | NIH-TrkC % Protection ([1]; 1 nM NT-3): 100 ± 2% | NIH-TrkA % Protection ([2]; 10 pM NT-3): 3 ± 2% | NIH-TrkA % Protection ([2]; 1 nM NT-3): 17 ± 3% | NIH wt % Protection ([3]; 10 pM NT-3): 1 ± 4% | NIH wt % Protection ([3]; 1 nM NT-3): −2 ± 5%

Molecule: anti-p75 monoclonal antibody MC192
% Maximal binding [4]: 100%

Molecule: nerve growth factor (NGF) (ligand)
% Protection (MTT, NIH-TrkC), 10 pM NGF [6]: 2% | % Protection (MTT, NIH-TrkC), 1 nM NGF [6]: 5% | % Protection (MTT, rat DRG neurons), NGF 20 pM [7]: 9% | % Protection (MTT, rat DRG neurons), NGF 500 pM [7]: 68% | ChAT Activity (rat septal neurons), 10 pM NGF (pmol Ach/min/well) [7]: 0.42 | ChAT Activity (rat septal neurons), 400 pM NGF (pmol Ach/min/well) [7]: 0.72 | Optical Density (MTT survival, rat DRG neurons), NGF 20 pM [7]: 316 OD | Optical Density (MTT survival, rat DRG neurons), NGF 500 pM [7]: 0.535 OD | Optical Density (MTT survival, rat DRG neurons), NGF 1 nM [7]: 823 OD

Molecule: Glu-Lys-Cys (also: further groups not given here) [C59 (EKCys), inactive analog of D3]
ChAT Fold Increase, 20 µM C59 control [8]: 1 fold

Second part, the molecule after the results:

MCF [5]: 10 MCF
Molecule: control-biotin (an inactive biotinylated peptide)

% Protection (MTT, NIH-TrkC), 10 pM NT-3 [9]: 29% | % Protection (MTT, NIH-TrkA), 10 pM NT-3 [10]: 3%
B1: Neurotrophin-3 (NT-3) (ligand, UniProt P20783 139-257, looked up, species assumed)
Neurotrophin-3: YAEHKSHRGEYSVCDSESLWVTDKSSAIDIRGHQVTVLGEIKTGNSPVKQYFYETRCKEARPVKNGCRGIDDKHWNSQCKTSQTYVRALTSENNKLVGWRWIRIDTSCVCALSRKIGRT
